This note sets out measurements from patent US8455447B2, “Modified therapeutic agents” (priority 2002, dated 2013).

Like-named read-outs stand apart in the source and are kept apart here. Ends that are not written are not given here.

Holding throughout (assay type): cell-based
In experiment [1] the test system is sheep erythrocytes. Nature of the experiment: Anti-haemolytic assay: classical pathway mediated haemolysis of sheep erythrocytes, presence of bovine serum albumin. The following applies: 40 mg/ml BSA (fatty acid free); non-stick plates; Example 3; read-out: IH50 (the source's name). The method, then:
Anti-Complement Activity of Acylated Peptide/APT154 Conjugates in the Presence of Bovine Serum Albumin (BSA)
7 wells of each of 4 lanes, missing the uppermost well, on a flat-bottomed microtitre plate were filled with 200 μL of the BSA/diluent solution. Into the uppermost wells, the required volume each test/control sample (APT3328, APT33330, APT33331 and APT070) was aliquotted, immediately followed by enough BSA/diluent solution to make the total volume up to 300 μL, to ensure a final concentration of 1.2 μM.
These 1.2 μM wells were then diluted across a 3 log dilution gradient and the rest of the assay performed as for the peptide/APT154 conjugates. The BSA diluent solution was used instead of pure diluent except for the Ao lane of the reaction plate, for which pure diluent (50 μL) and the BSA/diluent solution (50 μL) were aliquotted. The whole assay was repeated.
[…] In the Ao lane of the reaction plate, for which pure diluent (50 μL) and the BSA/diluent solution (50 μL) were aliquotted.
Multiple anti-haemolytic assays were performed on the reaction mixture of more than one batch of APT3147, in the presence and absence of fatty acid free bovine serum albumin (BSA) at both 4 mg/ml and 40 mg/ml, on non-stick plates.

Experiment [2] concerns sheep erythrocytes. Nature of the experiment: Anti-haemolytic assay: classical pathway mediated haemolysis of sheep erythrocytes, absence of albumin. The following applies: No BSA; non-stick plates; Example 3; read-out: IH50 (the source's name). The method, then:
The Anti-complement activity of the modified SCR1-3 agents was measured by classical pathway mediated haemolysis of sheep erythrocytes.
Step 1—The Dilution Plate
7 wells of each of 9 lanes, missing the uppermost well, on a flat-bottomed microtitre plate were filled with 200 μL of diluent (0.100 M Hepes, 0.150 M NaCl, 0.100% gelatin, adding NaOH to pH 7.4).
Into the uppermost wells, the required volume of each test/control sample was aliquotted, immediately followed by enough diluent to make the total volume up to 300 μL, to ensure a final concentration of 1.2 μM.
Using a multichannel Gilson pipette, all 9 top wells were mixed and 100 μL were transferred from these wells to the corresponding wells in 2nd row. […]
After incubation the plates were centrifuged at 1600 rpm for 3 min and the Nescofilm removed. 150 μL of supernatant from each well of the two plates was then transferred into the corresponding wells of two new microtitre plates and the absorbance of each well measured at 405 nm using a plate reader.
% inhibition was calculated using the following formula:
[formula] wherein: • Ao=the mean value of the absorbances in lane 1 • Amax=the mean value of the absorbances in lane 2 • t=the mean of the two absorbance values for each sample at any given concentration. […]

Experiment [3] relates to MAC formation on guinea pig erythrocytes. Nature of the experiment: Reactive lysis system: inhibition of MAC formation on guinea pig erythrocytes. The following applies: for IC50: read-out: IH50 (concentration of protein required to achieve 50% inhibition of lysis). The method, then:
The ability of APT2439, APT3073 and APT3280 to inhibit MAC formation on guinea pig erythrocytes, was tested in a reactive lysis system. The effect of human albumin (HSA) on this activity was also investigated. Test samples were prepared at a range of concentrations in the presence or absence of 8 mg/ml fatty acid free HSA (Sigma, UK). 50 μL of these dilutions was added to 50 μL of a 5% suspension of guinea pig erythrocytes in PBS/0.1% gelatin, and incubated for 30 minutes at 37° C. 10 μL of human C5b6 complex (C5b6 was partially purified from acute phase serum) in PBS containing 15 mM EDTA and 0.1% gelatin, was added to the guinea pig erythrocyte suspension. 40 μL of normal human serum, diluted in PBS containing 15 mM EDTA and 0.1% gelatin was added as a source of C7, C8 and C9, and the suspension was incubated for 1 hour at 37 degrees Celsius. (The concentrations of C5b6 and normal human serum required to achieve about 80% lysis of guinea pig erythrocytes was pre-determined by titration.) The reaction mixtures were centrifuged for 5 minutes at 1000×g and the degree of haemolysis was determined by measuring the absorbance of the supernatant at 410 nm. To determine background lysis, a control reaction was prepared without serum. To determine maximal lysis, a control reaction containing no inhibitor (or test sample) was prepared. The percentage inhibition of haemolysis was determined for each protein at each concentration. An IH50 value (the concentration of protein required to achieve 50% inhibition of lysis) was determined for each protein in the presence and absence of HSA.

On to “APT3147: bismyr-GSSKSPSKKKKKKPGDC conjugated to SCR1-3; SEQ ID NO: 26; two myristoyl groups (not fully specified (N-terminus); printed as bismyr-GSSKSPSKKKKKKPGDC; also: two myristoyl groups (bismyr-), places not given here, conjugated to SCR1-3) [bismyr-… conjugated to SCR1-3; two myristoyl groups]”, for which the IC50 in the experiment with sheep erythrocytes [1] and in the experiment with sheep erythrocytes [2] was 2.2 nM in each case.

B1: APT2439: Recombinant human CD59 (lacking the GPI anchor), with an amino-terminal methionine and a carboxy-terminal cysteine, expressed in E. coli (protein)
chain: MLQCYNCPNPTADCKTAVNCSSDFDACLITKAGLQVYNKCWKFEHCNFNDVTTRLRENELTYYCCKKDLCNFNEQLENC
On to B1, for which the IC50 in experiment [3] (Presence of HSA (2.7 mg/ml)) is 400 nM; in experiment [3] (absence of HSA), 600 nM. Moreover, the “concentrations required to achieve complete inhibition of haemolysis” value in experiment [3] (absence of HSA) is recorded as “mM concentrations”. Moreover, the “decrease in potency in the presence of HSA” value in experiment [3] (presence of HSA) is reported as “did not demonstrate any decrease in potency”.

B2: APT3280: disulphide conjugate of APT2439 and APT3146 (thiopyridylated bisMyr-KSSKSPSKKDDKKPGDC) (conjugate)
chain: MLQCYNCPNPTADCKTAVNCSSDFDACLITKAGLQVYNKCWKFEHCNFNDVTTRLRENELTYYCCKKDLCNFNEQLENC
peptide: KSSKSPSKKDDKKPGDC
B2: the IC50 in experiment [3] (Presence of HSA (2.7 mg/ml)) amounted to 0.08 nM. Further, in experiment [3] (absence of HSA), the “increase in potency compared to APT2439” value is around 4 log and the IC50 was 0.1 nM. The “decrease in potency in the presence of HSA” value in experiment [3] (presence of HSA) is “did not demonstrate any decrease in potency”.

B3: APT3073: disulphide conjugate of APT2439 and APT2258 (Myr-GSSKSPSKKDDKKPGDC (2-SPy)-NH2) (conjugate)
chain: MLQCYNCPNPTADCKTAVNCSSDFDACLITKAGLQVYNKCWKFEHCNFNDVTTRLRENELTYYCCKKDLCNFNEQLENC
peptide: GSSKSPSKKDDKKPGDC
With B3, the IC50 in experiment [3] (Presence of HSA (2.7 mg/ml)) stood at 6 nM; in experiment [3] (absence of HSA), 0.8 nM. Also, the “increase in potency compared to APT2439” value in experiment [3] (absence of HSA) is around 3 log. In addition, the “decrease in potency compared to its potency in the absence of HSA” value in experiment [3] (presence of HSA, final concentration 2.7 mg/ml) amounted to 1 log.
